For three molecules, Km and Vmax results are on record in patent EP1763578B1, “TANNASE” (priority 2004, dated 2006).

The Km is the concentration of substrate that gives half-maximal velocity.

Series [1] has as its target T1, Arxula adeninivorans LS3 Tannase II (Atan2p), SEQ ID NO: 4 (Blastobotrys adeninivorans, UniProt Q5GMI6).
T1 sequence (Q5GMI6 29-448): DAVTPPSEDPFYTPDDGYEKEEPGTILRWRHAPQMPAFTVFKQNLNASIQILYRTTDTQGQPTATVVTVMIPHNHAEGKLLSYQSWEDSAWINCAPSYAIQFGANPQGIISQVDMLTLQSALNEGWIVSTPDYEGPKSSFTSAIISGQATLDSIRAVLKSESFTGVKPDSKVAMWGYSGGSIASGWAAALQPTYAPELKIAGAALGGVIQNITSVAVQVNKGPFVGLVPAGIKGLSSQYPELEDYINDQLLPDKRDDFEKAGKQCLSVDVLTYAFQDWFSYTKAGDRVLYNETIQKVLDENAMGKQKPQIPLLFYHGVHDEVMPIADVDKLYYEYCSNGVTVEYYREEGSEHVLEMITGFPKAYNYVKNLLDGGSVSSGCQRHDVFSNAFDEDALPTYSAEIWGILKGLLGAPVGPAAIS
The series can be described thus: Tannase assay with rhodanine, KM determination with tannin. The note with it: tannin solution 0,05-0,75 mg/ml, 15 min at 30°C; Lineweaver-Burk plot; read-out: KM-Wert (Tannin). In kind it is biochemical. The method, then:
(§1) Der Nachweis der Tannase mit Hilfe des Rhodanins, wurde nach einer Methode von Sharma et al. (Sharma S, Bhat TK, Dawra RK (2000) A spectrophotometric method for assay of tannase using Rhodanine. Anal. Biochem. 279: 85-89, 2000) durchgeführt.
(§2) Als Test-Kontrolle wurden 450 µl Puffer und 50 µl eingeengter Kulturüberstand zusammenpipettiert. Als Blank-Kontrolle wurden 250 µl der Substratlösung und 250 µl Puffer zusammengegeben. Diese drei verschiedenen Ansätze wurden anschließend für 5 Min bei 30°C inkubiert. […] Nach anschließender Inkubation für 5 Min bei 30°C wurden weitere 200 µl 0,5 M KOH zugegeben. Nach wiederholter Inkubation bei 30°C für 5 Min wird die Absorbtion der verschiedenen Ansätze bei 520 nm im Spektrophotometer (UV160-A/Shimadzu) gegen Wasser gemessen. Die Absorption kann nach folgender Formel berechnet werden: ΔA520nm = (ATest-ABlank)-(AKontrolle-ABlank) [formula]
(§3) Mit Hilfe einer Eichkurve wurde dann die entstandene Gallatmenge ermittelt. Einheiten/Enzym = ((μmol gebildetes Gallat/min)*(Vf))/((0, 05)) [formula] Vf = Verdünnungsfaktor 0,05 = eingesetztes Probevolumen (in Milliliter) Eine Einheit ist definiert als µmol gebildetes Gallat pro Minute.
Zur Bestimmung des KM-Wertes wurde zu je 50µl Tannase-Probe 250µl Tanninlösung in Konzentrationen von 0,05 mg/ml bis 0,75 mg/ml zugegeben, alles 15 Min bei 30°C inkubiert und die Tannaseaktivität gemessen. […]

Series [2] relates to Arxula adeninivorans LS3 Tannase I (Atan1p), SEQ ID NO: 3. The description is as above. The note with it: tannin solution 0,05-0,75 mg/ml, 15 min at 30°C; Lineweaver-Burk plot; read-out: KM-Wert (Tannin). The series is classed as biochemical. The method, then:
as §1, §2, §3
Zur Bestimmung des KM-Wertes wurde zu je 50 µl Tannase 250 µl Tanninlösung in Konzentrationen von 0,05 mg/ml bis 0,75 mg/ml zugegeben, alles 15 Min bei 30°C inkubiert und die Tannaseaktivität wie beschrieben ermittelt. […]

Substrate in series [3]: CCCCCCCCCC(=O)Oc1ccc([N+](=O)[O-])cc1
The series can be described thus: Lipase assay with p-nitrophenyl ester, native enzyme. The series is classed as biochemical, Arxula adeninivorans LS3. The note with it: other: native lipase; pH 7.5; 30.0 °C. The procedure:
(§4) Für diese Bestimmung wurde eine frische Stammlösung (3mM […] in 10 ml Propanol durch 10 Min vortexen lösen) angesetzt. Für den Messansatz wurden 850 µl 0,05 M Na-Phosphat-Puffer pH 7,5 und 100 µl der Stammlösung gemischt und anschließend 50 µl Probelösung zugegeben. Als Kontrolle wurden 900 µl Puffer und 100 µl Stammlösung zusammengegeben. Beide Ansätze wurden für 5-10 Min bei 30°C inkubiert und anschließend 1 ml Aceton zum Abstoppen der Reaktion zugegeben. Danach wurde die Absorption bei 410 nm im Spektrometer (UV160-A/Shimadzu) gegen Wasser gemessen: Die Enzymaktivität kann dann nach folgender Formel berechnet werden: Einheiten/ml Enzym = ((ΔA410nm/min Test-ΔA410nm/min Blank)*(Vf))/((14, 800)*(0, 05)) [formula] Vf = Verdünnungsfaktor 14800 I mol^-1 cm^-1= Extinktionskoeffizient von p-Nitrophenol bei 410nm (Quinn et al. 1982) 0,05 = eingesetztes Probevolumen (in Milliliter) Eine Einheit ist definiert als µmol gebildetes p-Nitrophenol pro Minute.
(§5) Da Atan2p eine sehr hohe Homologie zu Lipasen aufweist, wurde A. adeninivorans G1211/pAL-ALEU2m-ATAN2 parallel auf sekretorische Lipase-Aktivität mit p-Nitrophenyl-Caprate geprüft. Dazu erfolgte eine Anzucht in HMM + 2% Glukose bzw. HMM + 2% Xylitol, Bedingungen unter denen das native ATAN2-Gen nicht exprimiert wird, d. h. auch kein natives sekretorisches Atan2p auftritt. […]

Substrate in series [4]: CCCCCCCCCC(=O)Oc1ccc([N+](=O)[O-])cc1
The series can be described thus: Lipase assay with p-nitrophenyl ester, recombinant enzyme. The note with it: other: recombinant lipase; pH 7.5; 30.0 °C. The series is classed as biochemical, Arxula adeninivorans. The method, then: as §4, §5

As to Tannin, the values for the Km in series [1] and in series [2] were 1100 µM and 150 µM, respectively.

B1: Tannase II (Atan2p nativ, native Lipase) secreted by A. adeninivorans LS3, SEQ ID NO: 4 (Blastobotrys adeninivorans) (protein)
chain: DAVTPPSEDPFYTPDDGYEKEEPGTILRWRHAPQMPAFTVFKQNLNASIQILYRTTDTQGQPTATVVTVMIPHNHAEGKLLSYQSWEDSAWINCAPSYAIQFGANPQGIISQVDMLTLQSALNEGWIVSTPDYEGPKSSFTSAIISGQATLDSIRAVLKSESFTGVKPDSKVAMWGYSGGSIASGWAAALQPTYAPELKIAGAALGGVIQNITSVAVQVNKGPFVGLVPAGIKGLSSQYPELEDYINDQLLPDKRDDFEKAGKQCLSVDVLTYAFQDWFSYTKAGDRVLYNETIQKVLDENAMGKQKPQIPLLFYHGVHDEVMPIADVDKLYYEYCSNGVTVEYYREEGSEHVLEMITGFPKAYNYVKNLLDGGSVSSGCQRHDVFSNAFDEDALPTYSAEIWGILKGLLGAPVGPAAIS
For B1, in series [3], the Km was found to be 400 µM and the Vmax is 0,043 µmol x min^-1.

B2: Tannase II (Atan2p rekombinant, rekombinante Lipase) secreted by A. adeninivorans G1211/pAL-ALEU2m-ATAN2, SEQ ID NO: 4 (Blastobotrys adeninivorans) (protein)
chain: DAVTPPSEDPFYTPDDGYEKEEPGTILRWRHAPQMPAFTVFKQNLNASIQILYRTTDTQGQPTATVVTVMIPHNHAEGKLLSYQSWEDSAWINCAPSYAIQFGANPQGIISQVDMLTLQSALNEGWIVSTPDYEGPKSSFTSAIISGQATLDSIRAVLKSESFTGVKPDSKVAMWGYSGGSIASGWAAALQPTYAPELKIAGAALGGVIQNITSVAVQVNKGPFVGLVPAGIKGLSSQYPELEDYINDQLLPDKRDDFEKAGKQCLSVDVLTYAFQDWFSYTKAGDRVLYNETIQKVLDENAMGKQKPQIPLLFYHGVHDEVMPIADVDKLYYEYCSNGVTVEYYREEGSEHVLEMITGFPKAYNYVKNLLDGGSVSSGCQRHDVFSNAFDEDALPTYSAEIWGILKGLLGAPVGPAAIS
On to B2, for which, in series [4], the Km turned out to be 710 µM and the Vmax is 0,036 µmol x min^-1.
